Assay results as given in PMC5760527 (2018).

Target: Cx43 EL1 peptide extracellular loop 1 (EL1) (Mus musculus, UniProt P23242)
Assay: SPR

Cx43 EL1 peptide extracellular loop 1 (EL1), sequence (P23242 45-76): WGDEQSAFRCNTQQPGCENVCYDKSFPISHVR

- Kd: 20 µM
Binder: QPGCEN [P4 peptide (Cx43 mimetic)]
